Drawing on article PMC7851489, this text covers Kd for two molecules.

The experiment concerns the target soluble extracellular domain of poliovirus receptor (sPVR). Nature of the experiment: BLI. (In general: BLI is a label-free optical method that tracks binding on a fibre tip over time.)

In the case of “mouse TIGIT protein (from UniProt P86176 29-148) (receptor)”, the Kd is 0.033 µM.

B1: mouse CD226 protein (receptor)
chain: EETLWDTTVRLSETMTLECVYPLTHNLTQVEWTKNTGTKTVSIAVYNPNHNMHIESNYLHRVHFLNSTVGFRNMSLSFYNASEADIGIYSCLFHAFPNGPWEKKIKVVWSDSFEIAAPSDSYLSAEPGQDVTLTCQLPRTWPVQQVIWEKVQPHQVDILASCNLSQETRYTSKYLRQTRSNCSQGSMKSILIIPNAMAADSGLYRCRSEAITGKNKSFVIRLIITDGGTNKHFILP
B1 had a dissociation constant Kd of 6.13 µM.

As a reminder, the Kd is the equilibrium constant for the complex coming apart. Lower therefore signals tighter binding.
